Laboratory results from the RNAGym collection of RNA variant scans (doi:10.1073/pnas.2313332121).

B1: TPR t1 (parent)
chain: GACCAAUCUGCCCUCAGAGCUCGAGAACAUCUUCGGAUGCAGAGGAGGCAGGCUUCGGUGGCGCGAUAGCGCCAACGUCCUCAACCUCCAAUGCAUCCCACCACAUGAUGAUGCCUGAAGAGCCUUGGUUUUUUG

Variants of: B1
Test: polymerase ribozyme fitness, log enrichment relative to wild type (log ratio); higher = more active; in vitro selection for triplet polymerase activity
Procedure, shortened: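 Streptavidin-bead capture of gel-excised extended constructs, followed by RT-PCR, closed a single triplicate in vitro selection round. That round began by annealing PCR-built, transcribed mutant libraries of each subunit of a heterodimeric triplet polymerase ribozyme with a biotinylated primer, the partner subunit and triplets, then incubating them frozen at −7 °C. After Illumina sequencing of inputs and outputs, genotypes needed ≥10 input reads and ≥1 read per output. Fitness is the base-2 logarithm of genotype enrichment over wild-type enrichment, using inverse-variance-weighted replicate averages.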

| Variant | polymerase ribozyme fitness (log ratio) |
| --- | --- |
| C11G C56U A74U A84G G135U | -1.8 |
| C11G G44A A68G | -4.14 |
| C11G C13A C88G | -2.71 |
| C11U G44C C104U U116C | -3.59 |
| C11G G25C G39A C56A C72G C82A A111C | -7.55 |
| C11G G35C G71U G110U | -7.04 |
| C11A G39A U54A C72A | -1.51 |
| C11G A43G U59A C64U | -2.3 |
| C11U C62G | -1.21 |
| C11A C72U | -1.58 |
| C11A C70U G117A | -6.1 |
| C11U C82A | -1.02 |
| C11U C70A A121C | 0.0688 |
| C11U A18C C73U G127A | -5.36 |
| C11G C124A | 2.13 |
| C11G A50C U92G C114A G122C U131C | -3.35 |
| C11G G61A C124A | 2.07 |
| C11U | -0.381 |
| C11G | 0.294 |
| C11A | -1.27 |
| C11G G63U C88A | -1.57 |
| C11G A121G | 1.78 |
| C11G A121C | 1.5 |
| C11A U133A | -2.64 |

| Variant | polymerase ribozyme fitness (log ratio) |
| --- | --- |
| C11G G39A C49G C53U G69A A75U G120C | -2.05 |
| C11U C53U C94G C123G | -1.5 |
| C11A C40G U129A | -3.42 |
| C11A A74G | -1.56 |
| C11A A26U C72A | -5.37 |
| C11G C40A G48U C70U | -1.6 |
| C11G A41C C56U G93A C123G G135U | -3.49 |
| C11U G36U | -1.77 |
| C11G C49A A74G A75U G77U | -0.693 |
| C11A A37G G60U C101A U131G | -2.57 |
| C11G A66U | -0.995 |
| C11G G120U | 1.37 |
| C11G G120C | 1.89 |
| C11G G120A | 1.51 |
| C11G A41G C73G | -0.55 |
| C11G C73G | -0.268 |
| C11G C73U | 0.123 |
| C11U A121G | 1.13 |
| C11A A26G G71C C101A C114U | -6.79 |
| C11U C49U | -1.29 |
| C11A C88A | -2.15 |
| C11G C15U G25C A111C A118G | -6.56 |
| C11G G44A A121U | 1.52 |
| C11G G19A C53U C89A | -2.96 |

| Variant | polymerase ribozyme fitness (log ratio) |
| --- | --- |
| C11U C53U G110A U129A | -3.35 |
| C11U C79G U92A U106C U112A | -5.83 |
| C11A C12A A41G C89U | -2.15 |
| C11A G17U | -3.57 |
| C11A G60U A83U | -2.13 |
| C11G G36U A43U G61A G63A C115U U125A U132A | -6.45 |
| C11A G60C C86U | -1.76 |
| C11U C56U G128C | -3.11 |
| C11U G39U C102A C104U A111G | -1.71 |
| C11U G60U U78C U116C | -2.11 |
| C11G C53G C114U G127C | -1.98 |
| C11A G47U G71A A83G G107C C124U | -7.17 |
| C11U G44A C79U A119U | -1.69 |
| C11U C22A C124U | -3.19 |
| C11A G52C C56A | -2.98 |
| C11G C80A G117C C123U | -7.43 |
| C11G C40U G63A | -1.18 |
| C11G A37C G61U | -0.241 |
| C11U G52A A118G | -0.222 |
| C11A C49A G69A G113A G128C | -6.11 |
| C11G G42U G45U G51C G120A U134G | -4.64 |
| C11A A18U A26G G39U G42A G45A G60A U133A | -6.17 |
| C11A A27G A41U C49G G61U | -3.34 |
| C11G G42U A84U | -1.53 |

| Variant | polymerase ribozyme fitness (log ratio) |
| --- | --- |
| C11U C15G G36C | -7.38 |
| C11G U126A | -0.924 |
| C11G U126C | -0.774 |
| C11A G45U U125G G127A | -4 |
| C11U A29G C53U | -2.33 |
| C11G C12G A46G G71U | -0.917 |
| C11A C13G G36U C73A | -4.01 |
| C11A G71U C104A U129G G135U | -5.56 |
| C11U C28G A83C C85U | -4.39 |
| C11U C20G C72U | -3 |
| C11A G60A U112A A118U | 0.704 |
| C11A A27G | -6.66 |
| C11G C49U G120C | 1.52 |
| C11A G60U U112A A118U | 0.776 |
| C11A C12A C28U C31G G52A G63C G113C U116A | -5.83 |
| C11U C22U U38C | -4.76 |
| C11A G69U G93A G128U | -3.27 |
| C11A U87A | -1.66 |
| C11G U54C G60U C86U | -0.56 |
| C11G C62A | -0.516 |
| C11G G52U C56G C102U A103C | -6.01 |
| C11U C22G A111G G122U U129C | -6.1 |
| C11G A18C | -1.71 |
| C11U G36A G63U | -2.37 |

| Variant | polymerase ribozyme fitness (log ratio) |
| --- | --- |
| C11U G48U G113A | -2.84 |
| C11G U125A | -0.25 |
| C11U A41G C104A C123U U125C | -1.19 |
| C11U C89A | -2.85 |
| C11A G69C A121G | -0.0496 |
| C11G C73U C85A A111G | -0.304 |
| C11G C123U | 0.785 |
| C11G C123G | 0.989 |
| C11U A27U A103U G120C G122U | -5.67 |
| C11G C70U C79A | -1.87 |
| C11G G63A C82G G117U C123G | -2.82 |
| C11A U30C | -5.07 |
| C11G A41U G47C U59A | -3.12 |
| C11A G45U G71A A121C U132A | -0.447 |
| C11A C20U G42C C53U | -4.13 |
| C11G C22G C53G C70U C82U | -4.01 |
| C11G C49A G61A G120U | 2.28 |
| C11G A27G C85A U125A | -2.01 |
| C11G A29U A46G C72A A100C A119U | -3.42 |
| C11G C15A G61U U125G | -0.123 |
| C11G C31G | -4.32 |
| C11U C12U A111C G122A | -0.0374 |
| C11G C62U C101G U131G | -3.31 |
| C11A A119C C124G | -4.46 |

| Variant | polymerase ribozyme fitness (log ratio) |
| --- | --- |
| C11G G44A G60A A121U | 1.14 |
| C11G A16U A24G G47C C72A A111C | -7.64 |
| C11G C22U | -2.75 |
| C11U A46U C86U | -2.1 |
| C11G C86G | -1.7 |
| C11G A41U G71C A90G G110U G135A | -5.24 |
| C11A C56U | -1.61 |
| C11G G117U | -1.54 |
| C11G A18G C89U U96A | -4.23 |
| C11A C15G U21G G63U A90U G93U C115U C124U G127U | -6.26 |
| C11G G45U G51C G61A | -3.84 |
| C11U G39U | -1.37 |
| C11U C86A C104U | -1.37 |
| C11G G42C | -1.1 |
| C11A G69U C97A C101A C104A | -3.94 |
| C11U G44C | -1.47 |
| C11U G44A | -1.49 |
| C11A C20U C73A A118U U133A | -2.94 |
| C11G C13U C104A A111U | -3.99 |
| C11U A41G U78G C97U | -1.63 |
| C11U C56G U112G | -0.0117 |
| C11G U59A | 0.0952 |
| C11A G61A C104A G110A | -5.34 |
| C11G C28G G58U | -2.76 |

| Variant | polymerase ribozyme fitness (log ratio) |
| --- | --- |
| C11A G17U G61C A84G C124A | -4.74 |
| C11U C70A | -0.922 |
| C11A G93C | -1.54 |
| C11A C12G C70A A111C | -3.93 |
| C11G C64U C115U U130A | -1.38 |
| C11U G19A G61A U131G | -3.33 |
| C11A G17A C124A G128A | -5.02 |
| C11U C88G C114A U126A | -5.99 |
| C11G C76U C99A U130G | -6.95 |
| C11U G35U G39U C56A G71U G122A | -6.34 |
| C11U C22G C31A C72G C99U C123A | -5.82 |
| C11G C13G A18U C49G | -3.53 |
| C11G C56U C76G U106A A119U | -1.85 |
| C11U C15U | -2.2 |
| C11G G52A C94A | 0.0249 |
| C11A A100C | -2.81 |
| C11A C72A C101A U126C | -3.38 |
| C11G A16U C28G A121C | -0.982 |
| C11G C72G C82G G117C | -3.64 |
| C11G C12G C79G C94U G117A U131A | -2.71 |
| C11G G107U | -3.64 |
| C11U A118G U133A | -0.694 |
| C11G C28G G60A A68C U81A U106C G127C | -6.42 |
